No end group written: not given here. *: point of attachment. OAll = C=CCO*
Experiments:
[1] = biological target: CXCR4 receptor (human (endogenous in CCRF-CEM)) (UniProt P61073)
[2] = biological target: CXCR4 receptor (human (endogenous in CCRF-CEM)) (UniProt P61073); remark: listed apart in the source

Chain of UniProt P61073 (P61073 whole entry): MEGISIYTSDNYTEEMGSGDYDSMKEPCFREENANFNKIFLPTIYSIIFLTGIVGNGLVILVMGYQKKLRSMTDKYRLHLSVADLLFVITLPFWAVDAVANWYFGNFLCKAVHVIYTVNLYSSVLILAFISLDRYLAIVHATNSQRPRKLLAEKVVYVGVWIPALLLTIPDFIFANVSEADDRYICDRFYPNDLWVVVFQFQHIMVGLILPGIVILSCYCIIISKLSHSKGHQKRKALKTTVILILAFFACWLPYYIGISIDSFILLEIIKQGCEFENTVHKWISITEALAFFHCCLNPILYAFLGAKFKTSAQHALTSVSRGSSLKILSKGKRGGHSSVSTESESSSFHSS

Row | Binder | increase of the cAMP level in CCRF-CEM cells in the presence of CXCL12 (100 ng/mL) and forskolin (1 uM); PepE at 1 and 10 uM (20% at 1 uM), dose dependent [1] | migration index of CCRF-CEM cells towards CXCL12 (100 ng/mL) in a Transwell assay; 1.75-fold without peptide [2]
1 | YGECPCE-OAll (cysteine pairing not given here) [PepE] | 65% | 1.35 fold
2 | YGECPCK-OAll (cysteine pairing not given here) [PepK] |  | 1.55 fold
